This note sets out measurements from US20040120954A1, “Regulation of mt1-mmp activity” (priority 2000, published 2004).

For one test, the target named is T1, MT1-F (Homo sapiens, UniProt P50281).
T1 construct: expressed in transfected cells
In words: 125I-labeled TIMP-2 binding assay on transfected CHO-K1 cells. On the procedure: FIG. 12: The efficacies of MT1PEX-F on the proteolytic activity and TIMP-2 binding ability of MT1-F expressed on a cell surface are shown. As is shown in FIG. 12 through FIG. 14, CHO-K1 cells were transfected with the expression vectors for MT1-F, MT1PEX-F or MT1Cat-F, or a vector alone (Mock). The cells were then treated with trypsin, and seeded on DQ™-gelatin coated cover slips for proteolytic activity tests (FIG. 13) and in 24-well plates for TIMP-2 binding assays (FIG. 12) and for proMMP-2 activation (FIG. 14). Results are all from the same transfection experiment. […]
Next, to determine if MT1PEX-F affects the catalytic activity of MT1-MMP on the cell surface or not, tests for gelatin degrading activity and binding capacity to TIMP-2 were conducted using cells transfected in the same incubator. […] Transfected cells on the DQ™ gelatin-coated cover slip as shown in FIG. 13 were incubated in a medium at 37° C. for 18 hrs, and the generated fluorescence was analyzed using confocal microscopy. […] MT1-MMP specific binding was calculated by subtracting the datum obtained in the presence of BB-94 (50 μM) from each datum derived from the corresponding experiments. […] DQ™ gelatin is a fluorescence-quenched gelatin, which fluoresces upon proteolytic cleavage. […]

The next test concerns the target T2, MT1-F/NGFR (Homo sapiens, UniProt P04629+P50281).
T2 construct: expressed in transfected cells; host or cells: COS1 cells (pSG5 vector)
Kind of test: Dimer formation of MT1-F/NGFR chimera on the cell surface (anti-phosphotyrosine PY20 Western blotting, co-transfected COS1 cells). The test is classed as cell-based. Conditions: for competition in the dimer formation of MT1-F/NGFR (PY20 band intensity): COS1 cells co-transfected with MT1-F/NGFR and the construct (FIG. 23). Here is the method:
Cell lysate samples were subjected to separation on SDS-PAGE, followed by a transfer of the proteins in the gel to nitrocellulose membranes (Hybond-ECL, Amersham Pharmacia Biotech, Inc.). After blocking with a solution of 10% skim milk dissolved in TBS (20 mM Tris-HCl buffer, pH 7.5 containing 150 mM NaCl), the membrane was exposed to a monoclonal anti-FLAG M2 antibody (3 μg/ml) for detecting FLAG-tagged MT1-MMP and its mutants. In order to visualize the immunoreactive bands, the membrane was further exposed to an alkaline phosphatase-conjugated goat anti-mouse IgG antibody. For the purpose of detecting a phosphotyrosine residue in chimera proteins, a monoclonal anti-phosphotyrosine antibody, PY20 (1 μg/ml) was used.
Cell lysates were subjected to SDS/PAGE, followed by a transfer of the proteins to nitrocellulose membranes (Hybond-ECL, Amersham Pharmacia Biotech, Inc.). MT1-MMP, MT1Cat, MT1-MT4PEX and MT1-F/NGFR were detected with a polyclonal anti-CAT antibody (1:2000), while MT1-MMP, MT1PEX and MT1-F/NGFR with an anti-PEX antibody (222-1D8, 0.5 μg/ml). FLAG-tagged MT1-MMP and its mutants were detected with an anti-FLAG M2 antibody (3 μg/ml). Chimera proteins containing a phosphotyrosine residue were detected with a monoclonal mouse anti-phosphotyrosine antibody, PY20 (ICN Biochemicals, Inc., OH, USA; 1 μg/ml). Immunoreactive bands were visualized with an alkaline phosphatase-conjugated goat anti-mouse IgG or anti-rabbit IgG (Sigma).
NGFR forms a dimer through binding to its ligand. Subsequently, tyrosine residues in the cytoplasmic domain are trans-phosphorylated by its tyrosine kinase (Jing, S. et al., Neuron, 9: 1067-1079, 1992; Lemmon, M. A. et al., Trends Biochem. Sci., 19: 459-463, 1994).
By utilizing the above principle, a chimeric protein is first constructed consisting of the ectodomain of MT1-MMP and the transmembrane (TM) and cytoplasmic (CP) domains of NGFR (FIG. 8) in order to test for direct complex formation. When the ectodomain of this chimeric protein forms a homophilic complex in a similar manner, tyrosine residues in the cytoplasmic domain will be phosphorylated.
It is investigated whether co-expression of MT1PEX-F and MT1-F competes in the dimer formation of MT1-F/NGFR or not. For the test, the expression plasmids for MT1-F/NGFR and MT1PEX-F were co-transfected into COS1 cells.
Next, the expression plasmids for MT1-F/NGFR and FLAG-tagged MT1PEX (MT1PEX-F), MT1Cat (MT1Cat-F), or MT1-F were co-transfected to investigate if the dimer formation of the chimera could be disrupted or not.
In general terms: A western blot detects proteins with antibodies after separation by electrophoresis.

Turning to “MT1PEX-F: Catalytic domain-deleted FLAG-tagged MT1-MMP (Δ Tyr112-Pro312), expressed by transfection”, in the test with MT1-F (CHO-K1 cells co-transfected with MT1-F, 25 nM 125I-TIMP-2, 0° C., 1 hr, BB-94 (50 μM) background subtracted (FIG. 12)), the “decrease in TIMP-2 binding on the cell surface as compared with MT1-F alone” value came to 37%. In addition, the “decrease of phosphotyrosine signal” value with MT1-F/NGFR (COS1 cells co-expressing MT1-F/NGFR and Rac1DA (FIG. 24)) is reported as 43%. For the same substance, the “phosphorylation of MT1-F/NGFR” value in the test with MT1-F/NGFR (COS1 cells co-transfected with MT1-F/NGFR and MT1PEX-F at indicated DNA ratio (FIG. 10)) is on record as “inhibited depending on the expression level”. For the same substance, the “competition in the dimer formation of MT1-F/NGFR (PY20 band intensity)” value in the test with MT1-F/NGFR is given as “effectively competed”. In the test with MT1-F/NGFR (COS1 cells co-transfected with MT1-F/NGFR, increasing levels of MT1PEX-F expression, PY20 band intensity (FIG. 10)), the “inhibition of the phosphorylation of MT1-F/NGFR” value is at least 90%.
For “MT1Cat-F: PEX-deleted FLAG-tagged MT1-MMP (Δ Ile318-Gly535)”, the “TIMP-2 binding capacity as compared to the cells bearing MT1-F” value in the test with MT1-F (CHO-K1 cells expressing the mutant (FIG. 12)) is listed as “equivalent TIMP-2 binding capacity”. Moreover, the “competition in the dimer formation of MT1-F/NGFR (PY20 band intensity)” value in the test with MT1-F/NGFR is “did not decrease the intensity of the band”.
